Experimental findings from publication PMC314469, “Protein Interaction Networks by Proteome Peptide Scanning” (PLoS Biology, 2004) are described below.

Assay in all cases: SPOT array
Test [1] has as its target T1, Boi1 SH3 (BOI1_YEAST), P38041.
T1 chain: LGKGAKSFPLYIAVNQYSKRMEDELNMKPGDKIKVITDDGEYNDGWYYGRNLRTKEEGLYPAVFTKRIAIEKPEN

Test [2] has as its target T2, Boi2 SH3 (BOI2_YEAST), P39969.
T2 chain: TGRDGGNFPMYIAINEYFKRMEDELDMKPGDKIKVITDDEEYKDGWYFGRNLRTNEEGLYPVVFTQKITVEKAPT

The target in test [3] is T3, Myo5 SH3 (MYO5_YEAST), Q04439.
T3 chain: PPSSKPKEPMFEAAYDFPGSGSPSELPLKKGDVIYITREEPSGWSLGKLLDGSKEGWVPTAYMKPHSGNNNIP

The target in test [4] is T4, Rvs167 SH3 (RV167_YEAST), P39743.
T4 chain: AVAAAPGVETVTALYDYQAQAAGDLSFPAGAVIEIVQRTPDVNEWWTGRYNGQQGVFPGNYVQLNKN

Test [5] has as its target Sho1 SH3 (SHO1_YEAST), P40073.
In test [6] the target is T5, Yfr024 SH3 (LSB3_YEAST), P43603.
T5 chain: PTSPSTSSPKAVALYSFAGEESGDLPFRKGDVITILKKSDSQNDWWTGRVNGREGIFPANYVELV

For test [7], the target named is T6, Yhr016c SH3 (YSC84_YEAST), P32793.
T6 chain: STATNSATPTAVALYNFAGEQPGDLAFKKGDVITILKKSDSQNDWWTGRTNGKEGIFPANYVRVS

Chain of Sho1 SH3 (SHO1_YEAST), P40073 (P40073 295-366): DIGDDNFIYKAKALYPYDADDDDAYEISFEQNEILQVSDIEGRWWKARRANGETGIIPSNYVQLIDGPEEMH

RTPSKPDPMEPENT [YOR196C 194-207]: the normalised SPOT signal, Boehringer light units (BLU); mean over the file's lines of this peptide in test [1] stood at 28.1; in test [2], 35.4; in test [3], 187; in test [4] it was 19.3; in test [5] it was 18; in test [6], 78.9. This molecule came in with a normalised SPOT signal, Boehringer light units (BLU); mean over the file's lines of this peptide in test [7] of 21.1.
As for SANGKFIPSRPAPK [YHL007C 465-478], the normalised SPOT signal, Boehringer light units (BLU); mean over the file's lines of this peptide in test [1] was found to be 128; in test [2], 5.4; in test [3], 6760; in test [4], 147; in test [5] it was 75.2; in test [6], 539. For the same molecule, in test [7], the normalised SPOT signal, Boehringer light units (BLU); mean over the file's lines of this peptide was 14.7.
Regarding RTFFKLPPNLPEAE [YHR017W 94-107], the normalised SPOT signal, Boehringer light units (BLU); mean over the file's lines of this peptide in test [1] came to 220; in test [2], 5.1; in test [3], 2610; in test [4], 204; in test [5], 154; in test [6], 1050. Besides, the normalised SPOT signal, Boehringer light units (BLU); mean over the file's lines of this peptide in test [7] turned out to be 32.8.
SEAKRKFPEAPEVP [YNL121C 455-468]: the normalised SPOT signal, Boehringer light units (BLU); mean over the file's lines of this peptide in test [1] was 66.4; in test [2], 7; in test [3], 393; in test [4], 116; in test [5], 3.8; in test [6], 18.5. The molecule also gave a normalised SPOT signal, Boehringer light units (BLU); mean over the file's lines of this peptide in test [7] of 19.7.
SETARKVPPIPTQI [YPL249C 247-260]: the normalised SPOT signal, Boehringer light units (BLU); mean over the file's lines of this peptide in test [1] worked out at 73; in test [2], 34.5; in test [3], 420; in test [4], 21500; in test [5], 29.9; in test [6] it was 19400. This molecule came in with a normalised SPOT signal, Boehringer light units (BLU); mean over the file's lines of this peptide in test [7] of 8100.
As for SFVTKYLPAAPVGS [YJR019C 24-37], the normalised SPOT signal, Boehringer light units (BLU); mean over the file's lines of this peptide is 27 in test [1]; 18.9 in test [2]; 215 in test [3]; 100 in test [4]; 2510 in test [5]; 53.3 in test [6]. Moreover, the normalised SPOT signal, Boehringer light units (BLU); mean over the file's lines of this peptide in test [7] turned out to be 82.1.
As to SGSGRRYPQTPSYY [YJL095W 698-711], the normalised SPOT signal, Boehringer light units (BLU); mean over the file's lines of this peptide worked out at 593 in test [1]; 41.3 in test [2]; 436 in test [3]; 137 in test [4]; 168 in test [5]; 638 in test [6]. This molecule also came in with a normalised SPOT signal, Boehringer light units (BLU); mean over the file's lines of this peptide in test [7] of 226.
Consider SEMHRAAPETPRSI [YKL050C 40-53], for which the normalised SPOT signal, Boehringer light units (BLU); mean over the file's lines of this peptide turned out to be 151 in test [1]; 28.9 in test [2]; 322 in test [3]; 207 in test [4]; 95.5 in test [5]; 904 in test [6]. In test [7], this molecule came in with a normalised SPOT signal, Boehringer light units (BLU); mean over the file's lines of this peptide of 140.
With RYSFKLLPPQPGSK [YER114C 841-854], the normalised SPOT signal, Boehringer light units (BLU); mean over the file's lines of this peptide in test [1] is 796; in test [2], 47.8; in test [3], 190; in test [4] it was 84; in test [5], 15500; in test [6] it was 352. In test [7], this molecule showed a normalised SPOT signal, Boehringer light units (BLU); mean over the file's lines of this peptide of 23.5.
In the case of SERRKALPKEPKKL [YIR010W 418-431], the normalised SPOT signal, Boehringer light units (BLU); mean over the file's lines of this peptide in test [1] is 1170; in test [2], 43.6; in test [3] it was 200; in test [4] it was 87.9; in test [5] it was 29500; in test [6], 649. This molecule returned a normalised SPOT signal, Boehringer light units (BLU); mean over the file's lines of this peptide in test [7] of 49.3.
For SENGRLTPGLPRSY [YPR111W 42-55], the normalised SPOT signal, Boehringer light units (BLU); mean over the file's lines of this peptide was determined as 64.5 in test [1]; 30.7 in test [2]; 170 in test [3]; 235 in test [4]; 35.8 in test [5]; 240 in test [6]. Besides, the normalised SPOT signal, Boehringer light units (BLU); mean over the file's lines of this peptide in test [7] is 52.2.
Take RYPFRMIPELPPKR [YMR004W 186-199]: the normalised SPOT signal, Boehringer light units (BLU); mean over the file's lines of this peptide came to 14100 in test [1]; 552 in test [2]; 3570 in test [3]; 14800 in test [4]; 2730 in test [5]; 18600 in test [6]. Further, in test [7], the normalised SPOT signal, Boehringer light units (BLU); mean over the file's lines of this peptide came to 7330.
For the molecule SDNSKSEPLPPVIT [YFR019W 1795-1808], the normalised SPOT signal, Boehringer light units (BLU); mean over the file's lines of this peptide amounted to 0 in test [1]; 1.4 in test [2]; 130 in test [3]; 54.5 in test [4]; 23.8 in test [5]; 21.6 in test [6]. The molecule also returned a normalised SPOT signal, Boehringer light units (BLU); mean over the file's lines of this peptide in test [7] of 32.7.
Consider SFIRKRAPTPPAPS [YBR108W 721-734], for which the normalised SPOT signal, Boehringer light units (BLU); mean over the file's lines of this peptide in test [1] was found to be 3210; in test [2] it was 30.6; in test [3], 878; in test [4], 250; in test [5], 208; in test [6], 1500. Further, in test [7], the normalised SPOT signal, Boehringer light units (BLU); mean over the file's lines of this peptide stood at 99.6.
